Assay results from paper PMC10384657.

Biological target: MPER25c (spike S2 membrane proximal region peptide) MPER (Severe acute respiratory syndrome coronavirus 2), P0DTC2
Assay: SPR
Conditions: modification not given

Binder: FGAGAALQIPFAMQMAYRF [PN19 (spike S2 internal fusion peptide)]
- Kd: 9.44 nM
